Results as given in paper PMC8867384 (Neuron, 2020).

T1: Torpedo nicotinic acetylcholine receptor γ subunit (Tetronarce californica (formerly …, UniProt P02714 18-506))
T1 sequence (looked up): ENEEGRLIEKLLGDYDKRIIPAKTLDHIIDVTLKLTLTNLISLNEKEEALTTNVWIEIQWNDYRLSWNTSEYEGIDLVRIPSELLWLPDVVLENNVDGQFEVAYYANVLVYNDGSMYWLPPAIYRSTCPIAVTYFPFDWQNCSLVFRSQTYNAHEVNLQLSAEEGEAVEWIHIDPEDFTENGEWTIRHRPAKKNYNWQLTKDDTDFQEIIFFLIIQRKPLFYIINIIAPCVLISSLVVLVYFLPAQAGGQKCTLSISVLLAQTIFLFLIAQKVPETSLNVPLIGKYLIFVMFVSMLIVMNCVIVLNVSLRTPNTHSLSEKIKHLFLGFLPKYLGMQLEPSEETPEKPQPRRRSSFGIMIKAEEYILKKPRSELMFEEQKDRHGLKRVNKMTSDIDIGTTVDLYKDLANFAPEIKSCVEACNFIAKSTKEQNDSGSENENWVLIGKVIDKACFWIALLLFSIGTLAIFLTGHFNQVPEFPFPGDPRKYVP

T2: Torpedo nicotinic acetylcholine receptor δ subunit (Tetronarce californica (formerly …, UniProt P02718 22-522, glycosylated (site not given)))
T2 sequence (looked up): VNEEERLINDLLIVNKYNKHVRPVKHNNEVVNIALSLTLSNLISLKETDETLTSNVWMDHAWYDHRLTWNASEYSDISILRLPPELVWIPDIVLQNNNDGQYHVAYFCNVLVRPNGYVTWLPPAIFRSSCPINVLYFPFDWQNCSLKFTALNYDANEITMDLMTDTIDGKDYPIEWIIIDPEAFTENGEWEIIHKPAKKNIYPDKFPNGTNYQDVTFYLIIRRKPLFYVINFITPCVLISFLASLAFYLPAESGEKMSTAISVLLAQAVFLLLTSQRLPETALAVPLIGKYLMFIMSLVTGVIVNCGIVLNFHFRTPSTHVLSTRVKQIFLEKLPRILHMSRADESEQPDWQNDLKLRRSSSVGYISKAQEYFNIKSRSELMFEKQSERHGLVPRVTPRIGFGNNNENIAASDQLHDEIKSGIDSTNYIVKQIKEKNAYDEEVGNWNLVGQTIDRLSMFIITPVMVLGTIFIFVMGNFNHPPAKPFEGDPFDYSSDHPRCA

B1: α-bungarotoxin (natural protein)
chain: IVCHTTATSPISAVTCPPGENLCYRKMWCDAFCSSRGKVVELGCAATCPSKKPYEEVTCCSTDKCNPHPKQRPG

Columns and labels:
Experiment in all cases: cryo-EM structure
[1] = biological target: native Torpedo nicotinic acetylcholine receptor (Tetronarce californica (formerly Torpedo californica)) (UniProt P02710)
Sequence of native Torpedo nicotinic acetylcholine receptor (Tetronarce californica (formerly Torpedo californica)) (P02710 25-461, chain 1 of 2): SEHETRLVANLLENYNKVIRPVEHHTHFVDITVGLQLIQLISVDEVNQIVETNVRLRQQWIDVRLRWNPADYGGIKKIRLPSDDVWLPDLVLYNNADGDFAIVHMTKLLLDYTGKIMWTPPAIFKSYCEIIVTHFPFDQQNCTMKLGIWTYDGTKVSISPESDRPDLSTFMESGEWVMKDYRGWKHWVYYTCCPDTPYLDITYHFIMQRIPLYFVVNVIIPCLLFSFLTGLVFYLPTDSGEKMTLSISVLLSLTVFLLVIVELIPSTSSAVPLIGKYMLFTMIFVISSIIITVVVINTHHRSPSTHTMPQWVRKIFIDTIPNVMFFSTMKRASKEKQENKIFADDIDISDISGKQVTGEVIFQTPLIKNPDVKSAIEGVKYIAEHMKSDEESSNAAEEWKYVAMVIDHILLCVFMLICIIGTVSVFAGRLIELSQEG
Sequence of native Torpedo nicotinic acetylcholine receptor (Tetronarce californica (formerly Torpedo californica)) (P02712 25-493, chain 2 of 2, further chain): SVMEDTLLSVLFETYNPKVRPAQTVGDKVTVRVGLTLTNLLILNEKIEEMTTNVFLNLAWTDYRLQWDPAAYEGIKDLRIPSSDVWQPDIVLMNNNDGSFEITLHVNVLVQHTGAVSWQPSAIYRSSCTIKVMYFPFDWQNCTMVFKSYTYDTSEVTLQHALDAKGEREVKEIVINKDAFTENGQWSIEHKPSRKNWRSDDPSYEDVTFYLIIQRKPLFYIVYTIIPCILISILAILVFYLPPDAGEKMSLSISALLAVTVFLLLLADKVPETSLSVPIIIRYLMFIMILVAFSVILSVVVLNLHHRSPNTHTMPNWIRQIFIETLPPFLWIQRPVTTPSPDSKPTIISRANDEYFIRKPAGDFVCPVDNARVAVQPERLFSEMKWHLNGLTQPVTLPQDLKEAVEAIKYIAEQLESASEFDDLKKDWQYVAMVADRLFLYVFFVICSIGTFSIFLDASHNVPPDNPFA

[2] = biological target: Torpedo nicotinic acetylcholine receptor α subunit (Tetronarce californica (formerly …, UniProt P02710 25-461))
Sequence of Torpedo nicotinic acetylcholine receptor α subunit (Tetronarce californica (P02710 25-461): as the sequence (P02710 25-461, chain 1 of 2) above

[3] = biological target: T1, Torpedo nicotinic acetylcholine …
[4] = biological target: T2, Torpedo nicotinic acetylcholine …

Molecule	stoichiometry N [1]	binding result [2]	binding result [3]	binding result [4]
α-bungarotoxin (from UniProt P60615 22-95) (natural protein)	2			
B1		binds	binds	binds
